Reference: the supplement of paper PMC9233669
Fewer inactive variants are shown than the library holds.

Legend:
biotinyl-Phe-oxazolone = assay: self-aminoacylation, catalytic enhancement (BFO) (fold over background); higher = more active; k-Seq, kA / k0A0; sequences stand for … in GGGAAUGGAUCCACAUCUACGAAUUC…UUCACUGCAGACUUGACGAAGCUG
Procedure, shortened: (§1)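 Mutagenized RNA pools with a 21-nt variable region (0.43 μM) reacted with each biotinyl-aminoacyl-oxazolone at 2–1250 μM. Reactions ran in 50 μL HEPES/NaCl/KCl/MgCl2/CaCl2 buffer with 5% acetonitrile, pH 6.9–7.0, for 90 minutes at room temperature. Streptavidin-captured RNA was quantified by triplicate qPCR and Illumina sequencing, and per-sequence fraction reacted was fit to a pseudo-first-order model with 1000 bootstraps. Catalytic enhancement is median kA divided by the uncatalyzed rate, the low-activity peak of a bimodal Gaussian fit.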

biotinyl-Trp-oxazolone = assay: self-aminoacylation, catalytic enhancement (BWO) (fold over background); higher = more active; k-Seq, kA / k0A0; sequences stand for … in GGGAAUGGAUCCACAUCUACGAAUUC…UUCACUGCAGACUUGACGAAGCUG
Procedure, shortened: as §1

biotinyl-Ile-oxazolone = assay: self-aminoacylation, catalytic enhancement (BIO) (fold over background); higher = more active; k-Seq, kA / k0A0; sequences stand for … in GGGAAUGGAUCCACAUCUACGAAUUC…UUCACUGCAGACUUGACGAAGCUG
Procedure, shortened: as §1

biotinyl-Leu-oxazolone = assay: self-aminoacylation, catalytic enhancement (BLO) (fold over background); higher = more active; k-Seq, kA / k0A0; sequences stand for … in GGGAAUGGAUCCACAUCUACGAAUUC…UUCACUGCAGACUUGACGAAGCUG
Procedure, shortened: as §1

biotinyl-Met-oxazolone = assay: self-aminoacylation, catalytic enhancement (BMO) (fold over background); higher = more active; k-Seq, kA / k0A0; sequences stand for … in GGGAAUGGAUCCACAUCUACGAAUUC…UUCACUGCAGACUUGACGAAGCUG
Procedure, shortened: as §1

biotinyl-Val-oxazolone = assay: self-aminoacylation, catalytic enhancement (BVO) (fold over background); higher = more active; k-Seq, kA / k0A0; sequences stand for … in GGGAAUGGAUCCACAUCUACGAAUUC…UUCACUGCAGACUUGACGAAGCUG
Procedure, shortened: as §1

| Sequence | self-aminoacylation (biotinyl-Phe-oxazolone) | self-aminoacylation (biotinyl-Trp-oxazolone) | self-aminoacylation (biotinyl-Ile-oxazolone) | self-aminoacylation (biotinyl-Leu-oxazolone) | self-aminoacylation (biotinyl-Met-oxazolone) | self-aminoacylation (biotinyl-Val-oxazolone) |
| --- | --- | --- | --- | --- | --- | --- |
| AAGUUUGCUAAUAGUGGUAAG [Fam3.1 aminoacylation ribozyme variant] | 0.868 | 0.724 | 0.992 | 0.788 | 0.769 | 0.801 |
| AAGUUUGCUAAUAGUUGCAAC [Fam3.1 aminoacylation ribozyme variant] | 0.862 | 0.841 | 1.06 | 0.853 | 0.933 | 0.83 |
| AAGUUUGCUAAUAUUCGCAAA [Fam3.1 aminoacylation ribozyme variant] | 0.994 | 2.04 | 1.2 | 1.25 | 1.75 | 1.32 |
| AAGUUUGCUAAUAUUCGCAAU [Fam3.1 aminoacylation ribozyme variant] | 1.32 | 1.33 | 1.31 | 1.16 | 1.11 | 1.05 |
| AAGUUUGCUAAUCGGCGCAAG [Fam3.1 aminoacylation ribozyme variant] | 2.32 | 0.944 | 0.842 | 1.05 | 1.03 | 1.14 |
| AAGUUUGCUAAUGGGCGCAAG [Fam3.1 aminoacylation ribozyme variant] | 0.784 | 1.5 | 0.937 | 1.08 | 0.695 | 0.874 |
| AAGUUUGCUAAUGGUCGAAAG [Fam3.1 aminoacylation ribozyme variant] | 1.03 | 0.713 | 0.687 | 0.591 | 0.723 | 0.897 |
| AAGUUUGCUAAUGGUCGCGAG [Fam3.1 aminoacylation ribozyme variant] | 8.04 | 1.82 | 1.21 | 1.59 | 1.15 | 1.27 |
| AAGUUUGCUAAUUGUAGCAAG [Fam3.1 aminoacylation ribozyme variant] | 0.987 | 1.02 | 0.854 | 0.95 | 0.979 | 1.03 |
| AAGUUUGCUAAUUGUCGCAAG [Fam3.1 aminoacylation ribozyme variant] | 1.37 | 1.06 | 0.834 | 0.764 | 0.788 | 0.846 |
| AAGUUUGCUAAUUGUCUCAAG [Fam3.1 aminoacylation ribozyme variant] | 1.05 | 0.743 | 0.937 | 0.852 | 0.943 | 0.881 |
| AAGUUUGCUACUAGUCCCAAG [Fam3.1 aminoacylation ribozyme variant] | 0.773 | 0.786 | 0.894 | 0.899 | 0.931 | 0.759 |
| AAGUUUGCUAGAAGUCGCAAG [Fam3.1 aminoacylation ribozyme variant] | 0.798 | 1.51 | 0.674 | 0.824 | 0.802 | 0.656 |
| AAGUUUGCUAGCAGUCGCAAG [Fam3.1 aminoacylation ribozyme variant] | 1.85 | 0.91 | 1.19 | 1.04 | 1.03 | 1.08 |
| AAGUUUGCUAGUAAUCGCAAG [Fam3.1 aminoacylation ribozyme variant] | 0.961 | 0.849 | 0.761 | 0.733 | 0.789 | 0.819 |
| AAGUUUGCUAGUAGUUGCAAG [Fam3.1 aminoacylation ribozyme variant] | 0.949 | 1.1 | 0.985 | 0.791 | 1.04 | 0.737 |
| AAGUUUGCUAUUAGUCCCAAG [Fam3.1 aminoacylation ribozyme variant] | 1.45 | 2 | 0.989 | 1.04 | 0.99 | 1.02 |
| AAGUUUGCUAUUAGUCGCUAG [Fam3.1 aminoacylation ribozyme variant] | 1.16 | 0.805 | 0.864 | 0.815 | 1.01 | 0.85 |
| AAGUUUGCUAUUAGUUGCAAG [Fam3.1 aminoacylation ribozyme variant] | 1.46 | 1.01 | 0.855 | 0.96 | 0.859 | 0.874 |
| AAGUUUGCUCAUUGUCGCAAG [Fam3.1 aminoacylation ribozyme variant] | 3 | 1.89 | 0.875 | 0.923 | 1.09 | 0.968 |
| AAGUUUGCUGAUAGUCGCAAU [Fam3.1 aminoacylation ribozyme variant] | 1.68 | 1.87 | 1.71 | 1.09 | 1.22 | 1.33 |
| AAGUUUGCUUAUAGUCGCGAG [Fam3.1 aminoacylation ribozyme variant] | 0.935 | 1.53 | 1.01 | 0.821 | 1.07 | 1.03 |
